Literature values, collected in paper PMC8441013.

Target: neuromedin B (Homo sapiens) (UniProt P08949)
Sequence of UniProt P08949 (P08949 whole entry, looked up): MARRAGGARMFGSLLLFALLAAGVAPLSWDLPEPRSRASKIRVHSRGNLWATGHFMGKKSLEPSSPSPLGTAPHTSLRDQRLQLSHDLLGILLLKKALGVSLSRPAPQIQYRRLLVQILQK

- Kd: 5 nM
Substance: NMBR (from UniProt P28336)
